Measurements taken from paper PMC4995487, “Tyrosine phosphorylation and protein degradation control the transcriptional activity of WRKY involved in benzylisoquinoline alkaloid biosynthesis”.

Molecular target: GST-CjWRKY1 WT (Coptis japonica, UniProt A0ZT25 1-185)
Assay: EMSA; 0.05 ug/ul poly(dI-dC), 1 mM MgCl2; EMSA: 20 fmol biotin probe, 3 ug protein, 1x LightShift binding buffer, 1 mM MgCl2, 0.5 mM EDTA, 0.05 ug/ul poly(dI-dC), 20 min at 4 C, 5% polyacrylamide gel; pH and salt not given
Settings: protein: recombinant; tags: N-terminal GST (pGEX-6P-1); label: biotin; blunt

Chain of GST-CjWRKY1 WT (A0ZT25 entry or part of it): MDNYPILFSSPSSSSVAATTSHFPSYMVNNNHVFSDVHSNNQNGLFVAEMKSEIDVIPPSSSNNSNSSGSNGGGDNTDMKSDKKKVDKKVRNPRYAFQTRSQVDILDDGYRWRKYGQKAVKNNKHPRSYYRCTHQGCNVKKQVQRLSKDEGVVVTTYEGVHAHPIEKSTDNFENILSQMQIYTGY

B1: 3x W-box probe (CYP80B2 promoter) (dsDNA)
DNA 1: CTGCTGACTAGCTGACTAGCTGACTAGATGG
DNA 2: CCATCTAGTCAGCTAGTCAGCTAGTCAGCAG
B1: binds.
